Measurements reported in PMC9537594.

How the values were obtained:
[1] = molecular target: cross-linked His-CAhex, 6-His-CA(A14C/E45C/W184A/M185A) (HIV-1); experiment: SPR; Reichert 4-SPR; cross-linked His-CAhex immobilised on an NTA chip via the C-terminal His-tag; peptides 3.9 µM to 2 mM; 0.01 M HEPES pH 7.4, 0.15 M NaCl, 0.05% Surfactant P20; Scrubber 2.0, simple kinetic model
[2] = molecular target: Cross-linked His-CAhex: disulfide-stabilized hexamer of 6-His-CA(A14C/E45C/W184A/M185A) (HIV-1); experiment: SPR; Reichert 4-SPR; cross-linked His-CAhex immobilised on an NTA chip via the C-terminal His-tag; peptides 3.9 μM to 2 mM; 0.01 M HEPES pH 7.4, 0.15 M NaCl, 0.05% v/v Surfactant P20; simple kinetic model

Row | Binder | Kd [1] [µM] | Kd [2] [µM]
1 | NSPSGVFTFGANSST [NUP1531409-1423 peptide] | 131 | 
2 | GPLLPGQSFGGPSVS [SEC24C228-242 peptide] | 1070 | 
3 | GPLLPGQSFGGPSVS [SEC24C_(228-242) 15-mer FG peptide] |  | 1070
